The subject of data set [1] is tyrosinase isolated from Agaricus bisporus. The note with it: cited from earlier work.
The target in data set [2] is T1, tyrosinase of B16 mouse melanoma cells (Mus musculus, UniProt P11344).
T1 construct: tyrosinase of B16 mouse melanoma cells; host or cells: B16 mouse melanoma cells
T1 sequence (P11344 19-533): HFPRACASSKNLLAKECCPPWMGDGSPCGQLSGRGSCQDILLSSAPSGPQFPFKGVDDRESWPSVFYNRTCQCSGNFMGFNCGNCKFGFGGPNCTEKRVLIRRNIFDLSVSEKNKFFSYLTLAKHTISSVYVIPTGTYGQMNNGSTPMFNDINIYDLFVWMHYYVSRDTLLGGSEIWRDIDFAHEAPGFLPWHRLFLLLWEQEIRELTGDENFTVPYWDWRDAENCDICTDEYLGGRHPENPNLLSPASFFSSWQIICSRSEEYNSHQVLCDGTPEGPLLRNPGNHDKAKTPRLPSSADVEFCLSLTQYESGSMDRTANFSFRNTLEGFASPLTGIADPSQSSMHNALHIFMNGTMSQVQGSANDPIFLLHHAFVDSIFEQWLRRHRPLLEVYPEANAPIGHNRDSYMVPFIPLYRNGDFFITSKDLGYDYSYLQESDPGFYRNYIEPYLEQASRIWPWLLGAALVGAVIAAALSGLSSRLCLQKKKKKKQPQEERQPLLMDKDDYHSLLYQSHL
The note with it: cited from earlier work.

The nature of data set [3]: enzyme activity assay of refolded recombinant human tyrosinase with L-Dopa as enzyme substrate (A475). The class given is biochemical. Particulars: for Specificity / Total enzyme activity: 10 L of the starting material, L-Dopa as enzyme substrate. The protocol:
In order to analyze the enzyme activity of the aforementioned refolded recombinant human tyrosinase, […] of 50 mM PBS buffer (pH 7.0), and […] crude extract containing refolded recombinant human tyrosinase were mixed and left standing for 5 minutes at 37° C. Subsequently, […] L-Dopa was added (to a final concentration of 3 mM) to the mixture as an enzyme substrate and reacted for 30 minutes at 37° C. The absorbance at A475 was measured using a spectrophotometer.
The final yield of the purification, the total amount of the proteins, the enzyme activity and the analysis of the specificity were summarized in Table 1. Table 1 summarizes the results of 10 L of the starting material, and L-Dopa was used as an enzyme substrate in the enzyme activity assay.

On to α-arbutin, for which the “inhibitory effects on tyrosinase” value in data set [1] was “does not exhibit any inhibitory effects”. The inhibition of tyrosinase result in data set [2] is on record as “significantly inhibits”.

B1: recombinant human tyrosinase: mature human tyrosinase of 512 amino acids, about 57 kDa, expressed in E. coli BL21(DE3)/pET-23a(+)-RHT and refolded (protein, UniProt P14679 19-529, looked up)
Tyrosinase: HFPRACVSSKNLMEKECCPPWSGDRSPCGQLSGRGSCQNILLSNAPLGPQFPFTGVDDRESWPSVFYNRTCQCSGNFMGFNCGNCKFGFWGPNCTERRLLVRRNIFDLSAPEKDKFFAYLTLAKHTISSDYVIPIGTYGQMKNGSTPMFNDINIYDLFVWMHYYVSMDALLGGSEIWRDIDFAHEAPAFLPWHRLFLLRWEQEIQKLTGDENFTIPYWDWRDAEKCDICTDEYMGGQHPTNPNLLSPASFFSSWQIVCSRLEEYNSHQSLCNGTPEGPLRRNPGNHDKSRTPRLPSSADVEFCLSLTQYESGSMDKAANFSFRNTLEGFASPLTGIADASQSSMHNALHIYMNGTMSQVQGSANDPIFLLHHAFVDSIFEQWLRRHRPLQEVYPEANAPIGHNRESYMVPFIPLYRNGDFFISSKDLGYDYSYLQDSDPDSFQDYIKSYLEQASRIWSWLLGAAMVGAVLTALLAGLVSLLCRHKRKQLPEEKQPLLMEKEDYHSLYQSHL
In the case of B1, the tyrosinase activity is given as 15.5 units/mg in data set [3] (after isolation from the crude extract using ion-exchange chromatography) and 57.7 units 1 mg in data set [3] (by using gel filtration chromatography).

B2: DEAE ion-exchange: recombinant human tyrosinase fractions after DEAE sepharose Fast Flow ion-exchange chromatography (protein, UniProt P14679 19-529, looked up)
Tyrosinase: B1 Tyrosinase
In the case of B2, in data set [3], the Specificity stood at 15.5 units/mg and the Total enzyme activity turned out to be 1383.1 units.

B3: Gel filtration: recombinant human tyrosinase fractions after Sephacryl S-100 HR gel filtration chromatography (protein, UniProt P14679 19-529, looked up)
Tyrosinase: B1 Tyrosinase
In the case of B3, in data set [3], the Specificity came to 57.7 units/mg and the Total enzyme activity worked out at 144.3 units.
